The target in this assay is Tulane virus (TV) virions, CsCl gradient-purified (Tulane virus).

As to “Maackia amurensis leukoagglutinin (MAL), biotinylated (from UniProt P0DKL3 30-278) (natural protein)”, the TV infectivity in LLC-MK2 cells by plaque assay after treatment with MAL (dose series up to 100 μg/mL; maximum enhancement at 50 μg/mL), percent of the untreated control was determined as 262%.
